The assay addresses T1, RIFIN PF3D7_1400600 (Plasmodium falciparum).
T1 construct: A-type RIFIN; on transfected CHO cells, and native from 3D7-MGD21^+ IEs in the immunoprecipitation
T1 chain: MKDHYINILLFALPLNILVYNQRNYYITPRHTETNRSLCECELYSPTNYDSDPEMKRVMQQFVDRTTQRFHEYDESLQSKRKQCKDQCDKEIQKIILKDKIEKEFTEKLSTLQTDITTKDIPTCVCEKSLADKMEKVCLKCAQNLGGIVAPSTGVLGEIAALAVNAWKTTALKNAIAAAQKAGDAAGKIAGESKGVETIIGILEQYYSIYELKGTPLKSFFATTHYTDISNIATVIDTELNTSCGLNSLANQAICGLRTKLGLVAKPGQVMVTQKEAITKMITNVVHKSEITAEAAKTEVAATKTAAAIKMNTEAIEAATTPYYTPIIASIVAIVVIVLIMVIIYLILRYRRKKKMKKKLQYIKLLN
The assay can be described thus: immunoprecipitation and LC-MS.

B1: MGD21 (antibody)
VH: EVQLVETGPGLMKTSGTLSLTCAVSGDYVNTNRRWSWVRQAPGKGLEWIGEVHQSGRTNYNPSLKSRVTISVDKSKNQFSLKVDSVTAADTAVYYCARASPLKSQRDTDLPRPSISAEPGTVIPLGSHVTFVCRGPVGVQTFRLERERNYLYSDTEDVSQTSPSESEARFRIDSVNAGNAGLFRCIYYKSRKWSEQSDYLELVVKGEDVTWALSQSQDDPRACPQGELPISTDIYYVDVWGNGTTVTVSS
VL: AIRMTQSPSSLSASPGDKVSITCRASQHINDSLAWFQQRPGKAPKLLIYGASNLHSGVPSRFSGTGSGTDFTLTITGLQSEDFATYFCQQCNCFPPDFGQGTRLEIK
notes: Donor D; LAIR-1 insert in CDRH3; variable regions only; also called MGD21 ANTIBODY; mAb MGD21
Regarding B1, the “log2 fold change (MGD21 immunoprecipitates of 3D7-MGD21^+ against 3D7-MGD21^- IEs)” value stood at 2 log2 fold.
